Source: patent US9102922B2, “Trehalose phosphorylases and their use in the biocatalytic production of trehalose-analogues and glycosyl phosphates” (Universiteit Gent, priority 2010, dated 2015)
Changes are numbered by the printed parent chain. Names may count otherwise.

B1: TP from C. pacificum (Caldanaerobacter subterraneus subsp. tengcongensis MB4) (protein)
chain: MDMVKKTKKPIYPFEDWTIRETEFSIETNYRNETIFAQANGYMGMRGNFEEGYSGPDGTSLKGTYINGFYEIHDIIYPEGGYGFAKTGQTMLNVADSKIIELYVGEEKFDLLKGKIHFYERVLDMKKGCVERKIKWESPSGKIVNVKIKRIVSLQRQHLAVISFSVEPVNFTGNIKFVSAIDGDVRNITESEDVRVGSNLKGRVLETVERGTNGFEGWISQKTQKSNLSYTCAMKNELIGTEKYEVLNNVKEDRVEVAVAFKAEKNRVYILNKFISYYTSKDCDKSETMKLALEEVRRAQEDGFCKIEKEQEEFLQSFWEDADVVIEGDKALQQGIRFNMFHLLQSVGRDGKTNIAAKGLTGEGYEGHYFWDSDIYILPFFLYTKPEIAKALIMYRYNLLDAARNRAKELGHKGALYPWRTIDGPECSAYFPAGTAQYHINADIVYALKKYVEATNDLDFLYDYGCEIVFETARFWEDLGAYIPLKGNKFCINTVTGPDEYTALVDNNAYTNYMAKMNLEYAYDIANKMKKEVPEKYQKVASKLNLKDEEIASWKRAANNMYLPYSEELDIIPQDDSFLYKERITVDEIPEDQFPLLLHWHYLNIYRYQICKQPDVLLLMFLQREKFTIEQLKKNFDYYEPITTHDSSLSPAIFSILANEIGYTDKAYKYFMMTARMDLDDYNDNVKDGIHAAAMAGSWSAVVNGFGGMRVYTDELHFTPGLPEGWKMLSFNVKYKGRKINVKLTHEESVFTLLEGEPIEIFYFDRRVLIKSGENILKGYEEK
B2: K450N: CsTP with mutation K450N (protein, listed as Caldanaerobacter subterraneus)
chain: B1 chain with K450N

Tests used:
[1] = Phosphorolytic activity of the enzyme: specific activity, optimal pH and temperature; type: biochemical
Experimental: The phosphorolytic activity of the enzyme was determined using a discontinuous assay in which the released glucose is converted by glucose oxidase and peroxidase (GOD-POD)(Werner et al., 1970). The activity was assayed in 30 mM phosphate buffer at pH 7 and 60° C., using 30 mM disaccharide as substrate. The synthetic activity of the enzyme was determined using a discontinuous assay in which the released phosphate is complexed by molybdate and ascorbic acid (Gawronski and Benson, 2004). The activity was assayed in 50 mM MES buffer at pH 6 and 60° C., using 30 mM β-glucose-1-phosphate as donor and 500 mM of acceptor substrates.

[2] = Thermostability of the enzyme (residual activity after incubation); type: physicochemical; conditions: 1 hour incubation at 65° C.
[3] = Kinetic parameters of TP variants on glucose as acceptor; type: biochemical; conditions: Glc as acceptor; 60° C. and pH 6
Experimental: (§1) […] The synthetic activity of the enzyme was determined using a discontinuous assay in which the released phosphate is complexed by molybdate and ascorbic acid (Gawronski and Benson, 2004). […] Site-saturation mutagenesis was performed with degenerate primers (NNK) as described by […] et al. (2008), and random mutagenesis was performed with the GeneMorph II EZClone Domain Mutagenesis Kit (Stratagene) according to the manufacturer's instructions. The resulting DNA libraries were transformed into E. coli XL10-Gold, after which the cells were grown on solid LB medium in a Petri dish. Colonies were then transferred to 96-well microtiter plates containing liquid LB medium, in which enzyme expression was induced. Enzyme was extracted by the addition of lysis buffer with a liquid handling robot (Freedom EVO 200, Tecan) and the crude cell extracts were used for enzyme screening. Acceptor screening was performed with the phosphomolybdate assay described above. […] The clones with the highest activity were sequenced to identify the introduced mutations. The improved enzyme variants were then produced and purified as described for the wild-type enzyme, to allow a more detailed characterization.

[4] = Kinetic parameters of TP variants on galactose as acceptor; type: biochemical; conditions: Gal as acceptor; 60° C. and pH 6
Experimental: as §1

[5] = Donor specificity: phosphorolysis of lactotrehalose by CsTP variants (release of βGal1P and βGlc1P); type: biochemical
[6] = substrate: OC[C@H]1OC(O)[C@H](O)[C@@H](O)[C@@H]1O; assay: Synthetic activity of TP on monosaccharide acceptors (released phosphate, molybdate assay); type: biochemical, Carboxydibrachium pacificum; conditions: other: 60° C. and pH 6
[7] = Specific activity of TP variant on mannose as acceptor; type: biochemical; conditions: compared with wild-type CsTP
Experimental: The activity was assayed in 30 mM phosphate buffer at pH 7 and 60° C., using 30 mM disaccharide as substrate. The synthetic activity of the enzyme was determined using a discontinuous assay in which the released phosphate is complexed by molybdate and ascorbic acid (Gawronski and Benson, 2004). […] Site-saturation mutagenesis was performed with degenerate primers (NNK) as described by […] et al. (2008), and random mutagenesis was performed with the GeneMorph II EZClone Domain Mutagenesis Kit (Stratagene) according to the manufacturer's instructions. The resulting DNA libraries were transformed into E. coli XL10-Gold, after which the cells were grown on solid LB medium in a Petri dish. Colonies were then transferred to 96-well microtiter plates containing liquid LB medium, in which enzyme expression was induced. Enzyme was extracted by the addition of lysis buffer with a liquid handling robot (Freedom EVO 200, Tecan) and the crude cell extracts were used for enzyme screening. Acceptor screening was performed with the phosphomolybdate assay described above. […] The clones with the highest activity were sequenced to identify the introduced mutations. The improved enzyme variants were then produced and purified as described for the wild-type enzyme, to allow a more detailed characterization.

[8] = 100 mM lactotrehalose, pH 7 and 60° C.

Row | Molecule | optimal pH for phosphorolytic activity [1] | optimal temperature for phosphorolytic activity [1] [°C] | specific activity ([1]; phosphorolysis of trehalose) [U/mg] | activity retained after incubation [2] [%] | Km [3] [mM] | kcat [3] [s⁻¹] | kcat [4] [s⁻¹] | donor preference in phosphorolysis of lactotrehalose [5] | Ratio βGal1P/βGlc1P [5, 8] | Release of βGal1P [5, 8] [U/mg] | Release of βGlc1P [5, 8] [U/mg] | Km [6] [mM] | kcat [6] [s⁻¹] | kcat/Km [6] [M⁻¹ s⁻¹] | change in specific activity on mannose as acceptor [7]
1 | B1 | 7 | 80 | 39.8±3.5 | 100 | 3.5 | 59 | 54 | almost exclusively produces β-Glc1P | 0.04 | 0.13 | 3.0 | 3.5 ± 0.7 | 59 ± 5.4 | 17000 ± 4000 | 
2 | B2 |  |  |  |  |  |  |  |  |  |  |  |  |  |  | significantly increases
